How the values were obtained:
atm_human ATM = atm_human ATM (UniProt Q13315)
mdm2_human MDM2 = mdm2_human MDM2 (UniProt Q00987)
Chain of mdm2_human MDM2 (Q00987 whole entry, looked up): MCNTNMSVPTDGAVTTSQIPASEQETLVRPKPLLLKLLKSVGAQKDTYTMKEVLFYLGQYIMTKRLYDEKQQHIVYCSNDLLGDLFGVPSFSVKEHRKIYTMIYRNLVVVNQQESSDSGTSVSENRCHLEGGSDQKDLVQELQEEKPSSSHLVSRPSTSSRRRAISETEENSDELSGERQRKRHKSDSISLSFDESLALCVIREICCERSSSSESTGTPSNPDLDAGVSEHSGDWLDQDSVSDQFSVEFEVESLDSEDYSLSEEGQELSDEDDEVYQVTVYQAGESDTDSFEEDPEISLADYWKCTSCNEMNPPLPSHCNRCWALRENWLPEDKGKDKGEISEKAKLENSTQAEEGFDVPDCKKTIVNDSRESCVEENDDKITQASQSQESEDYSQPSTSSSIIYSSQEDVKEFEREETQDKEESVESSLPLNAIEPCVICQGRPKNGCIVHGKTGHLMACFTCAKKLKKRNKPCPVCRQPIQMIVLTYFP

Chain of atm_human ATM (Q13315 whole entry): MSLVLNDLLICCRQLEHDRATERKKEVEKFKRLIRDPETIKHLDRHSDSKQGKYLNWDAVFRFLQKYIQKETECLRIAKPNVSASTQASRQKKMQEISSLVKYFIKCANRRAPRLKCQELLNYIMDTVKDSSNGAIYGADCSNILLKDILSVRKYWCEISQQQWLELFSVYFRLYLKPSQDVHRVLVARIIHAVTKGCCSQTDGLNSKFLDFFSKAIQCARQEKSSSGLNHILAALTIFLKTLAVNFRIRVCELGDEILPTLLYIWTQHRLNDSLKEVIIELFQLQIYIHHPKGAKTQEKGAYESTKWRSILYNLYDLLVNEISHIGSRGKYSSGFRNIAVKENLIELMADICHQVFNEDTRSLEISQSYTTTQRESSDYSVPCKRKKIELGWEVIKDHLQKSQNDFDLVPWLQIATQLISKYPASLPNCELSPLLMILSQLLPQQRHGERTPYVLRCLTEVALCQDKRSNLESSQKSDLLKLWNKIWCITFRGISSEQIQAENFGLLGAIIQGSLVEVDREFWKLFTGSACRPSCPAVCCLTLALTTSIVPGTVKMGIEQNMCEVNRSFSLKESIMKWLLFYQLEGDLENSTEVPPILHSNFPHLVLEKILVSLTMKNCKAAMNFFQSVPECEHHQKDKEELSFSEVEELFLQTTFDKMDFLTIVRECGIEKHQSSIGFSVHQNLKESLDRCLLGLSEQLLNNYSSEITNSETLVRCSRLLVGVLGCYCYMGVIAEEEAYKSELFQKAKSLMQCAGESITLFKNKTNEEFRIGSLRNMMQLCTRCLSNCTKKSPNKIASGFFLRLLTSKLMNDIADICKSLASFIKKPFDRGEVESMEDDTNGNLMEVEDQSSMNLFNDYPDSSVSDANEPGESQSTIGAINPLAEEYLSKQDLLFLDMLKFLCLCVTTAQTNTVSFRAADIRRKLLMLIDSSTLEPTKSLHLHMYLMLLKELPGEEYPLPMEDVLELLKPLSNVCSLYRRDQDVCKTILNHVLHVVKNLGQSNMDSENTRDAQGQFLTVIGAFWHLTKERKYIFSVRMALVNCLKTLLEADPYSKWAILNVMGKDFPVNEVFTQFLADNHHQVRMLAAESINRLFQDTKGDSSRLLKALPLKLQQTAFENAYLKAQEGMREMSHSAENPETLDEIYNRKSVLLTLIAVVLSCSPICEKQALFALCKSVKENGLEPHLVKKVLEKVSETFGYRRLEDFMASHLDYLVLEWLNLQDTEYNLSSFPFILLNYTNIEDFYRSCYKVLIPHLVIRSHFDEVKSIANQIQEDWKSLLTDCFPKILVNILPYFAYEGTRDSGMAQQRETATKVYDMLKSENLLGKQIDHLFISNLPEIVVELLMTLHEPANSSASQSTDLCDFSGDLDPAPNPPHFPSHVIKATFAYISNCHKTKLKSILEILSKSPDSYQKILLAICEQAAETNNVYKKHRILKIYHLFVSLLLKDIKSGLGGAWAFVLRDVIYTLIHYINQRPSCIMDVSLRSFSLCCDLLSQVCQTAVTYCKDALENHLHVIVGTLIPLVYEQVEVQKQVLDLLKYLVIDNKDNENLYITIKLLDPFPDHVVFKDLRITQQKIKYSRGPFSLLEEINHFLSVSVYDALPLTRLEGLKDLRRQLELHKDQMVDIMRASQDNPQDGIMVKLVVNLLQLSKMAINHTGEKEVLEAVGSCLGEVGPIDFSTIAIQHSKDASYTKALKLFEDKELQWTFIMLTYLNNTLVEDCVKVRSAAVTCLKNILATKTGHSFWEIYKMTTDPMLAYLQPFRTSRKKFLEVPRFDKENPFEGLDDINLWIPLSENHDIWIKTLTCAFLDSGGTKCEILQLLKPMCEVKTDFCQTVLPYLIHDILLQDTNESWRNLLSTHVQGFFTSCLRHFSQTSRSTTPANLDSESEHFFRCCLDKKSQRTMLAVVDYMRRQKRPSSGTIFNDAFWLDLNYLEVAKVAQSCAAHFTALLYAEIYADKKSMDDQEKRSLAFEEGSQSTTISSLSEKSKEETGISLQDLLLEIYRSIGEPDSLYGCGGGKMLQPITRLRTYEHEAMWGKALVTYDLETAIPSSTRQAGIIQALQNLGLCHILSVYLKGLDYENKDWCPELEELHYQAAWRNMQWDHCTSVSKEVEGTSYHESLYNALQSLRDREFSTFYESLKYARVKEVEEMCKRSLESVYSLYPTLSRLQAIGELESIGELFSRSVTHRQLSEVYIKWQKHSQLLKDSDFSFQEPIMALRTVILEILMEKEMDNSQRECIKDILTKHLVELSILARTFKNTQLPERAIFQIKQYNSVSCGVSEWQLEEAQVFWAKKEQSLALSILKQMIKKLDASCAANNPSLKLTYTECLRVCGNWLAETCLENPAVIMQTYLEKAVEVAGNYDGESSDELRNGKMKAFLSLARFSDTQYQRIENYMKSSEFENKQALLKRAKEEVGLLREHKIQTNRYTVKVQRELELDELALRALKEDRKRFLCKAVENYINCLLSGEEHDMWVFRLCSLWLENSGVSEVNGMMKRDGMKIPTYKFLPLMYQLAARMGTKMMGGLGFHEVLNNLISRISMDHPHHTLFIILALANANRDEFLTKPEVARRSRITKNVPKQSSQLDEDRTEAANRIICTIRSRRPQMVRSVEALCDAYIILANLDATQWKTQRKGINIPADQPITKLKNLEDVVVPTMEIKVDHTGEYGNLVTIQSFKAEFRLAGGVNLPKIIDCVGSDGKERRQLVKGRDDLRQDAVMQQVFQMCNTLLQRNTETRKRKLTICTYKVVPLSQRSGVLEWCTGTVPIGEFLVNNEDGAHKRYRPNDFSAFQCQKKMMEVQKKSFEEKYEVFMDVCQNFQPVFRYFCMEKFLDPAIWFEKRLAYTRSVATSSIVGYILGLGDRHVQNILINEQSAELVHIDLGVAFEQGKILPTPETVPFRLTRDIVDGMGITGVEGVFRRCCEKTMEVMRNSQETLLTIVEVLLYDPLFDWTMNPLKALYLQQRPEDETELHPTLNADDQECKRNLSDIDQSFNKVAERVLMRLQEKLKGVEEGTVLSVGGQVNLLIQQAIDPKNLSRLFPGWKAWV

Serine-protein kinase ATM (Homo sapiens), Q13315 D2870A;N2875K
effect of a mutation on the interaction (PPP2R5C, Q13362-1): disrupting interaction

Serine/threonine-protein phosphatase 2A 56 kDa regulatory subunit gamma isoform (Homo sapiens) (from UniProt Q13362-1) S520A
effect of a mutation on the interaction (atm_human ATM): disrupting interaction

Serine/threonine-protein phosphatase 2A 56 kDa regulatory subunit gamma isoform (Homo sapiens) (from UniProt Q13362) S520D
effect of a mutation on the interaction (mdm2_human MDM2): disrupting interaction

Source: IntAct's records for PubMed 21460856
